Laboratory results reported in the nanobody polyreactivity screen of Harvey et al. (2022).

Experiment: yeast display, Sf9 membrane polyspecificity reagent, FACS + sequencing; frameworks hold sequencing errors
Method in brief: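 Galactose-induced (36–48 hours) yeast carrying a synthetic nanobody display library were exposed to 10% biotinylated, detergent-solubilized Sf9 membrane reagent at 4 °C for 1 hour. FACS followed streptavidin microbead enrichment, using low and high (top ~1%) gates for expression (anti-HA) and reagent binding (streptavidin). Colony PCR, MiSeq 2 × 250 sequencing and CDR-length filtering followed. Labels for polyreactivity reflect the gate of origin.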

| Sequence | polyreactivity (PSR sort gate) |
| --- | --- |
| QVQLVESGGGLVQAGGSLRLSCAASGRTFRRYAMGWSRQAPGKERELVATISSGGSTNYADSVKGRFTISRDNAKNTVYLQMNSLKPEDTAVYYCKARGRSTVTYGYWGQGTQVTVSS | high polyreactivity |
| QVQLVESGGGLVQAGGSLRLICAASGLTFASYAMGWYRQAPGKERELVAAISSSGRTYYADSVKGRFTISRDNAKNTVYLQMNSLKPEDTAVYYCATRGLSRYYDYYYWGQGTQVTVSS | high polyreactivity |
| QVQLVESGGGLVQAGGSLRLSCAASGIIFEGNVMGWYRQAPGKERELVAAITSDTSTNYADSVKGRFTISRDNAKNTVYLQMNSLKPEDTAVYYCNAVIGTDYYYSGTAEFYYWGQGTQVTVSS | low polyreactivity |
| QVQLVESGGGLVQAGGSLRLSCAASGTMGWYRQAPGKERELVAAISSSDRTSYADSVKGRFTISRDNAKNTVYLQMNSLKPEDTAVYYCNASTVFAWRTTTLKLFYTAHDYWGQGTQVTVSS | low polyreactivity |
| QVQLVESGGGLVQAGGSLRLSCAPSGIIFYYYAMGWYRQAPGKERELVAAITGTGSRTYYADSVKGRFTISRDNAKNTVYLQMNSLKPEDTAVYYCNARSFATGSKVPARGYWGQGTQVTVSS | high polyreactivity |
| QVQLVESGGGLVQAGGSLSLSCAASGSIFRGNAMGWYRQAPGKERELVAANSYSSGTTYYADSVKGRFTISRDNAKNTVYFQMNSLKPEDTAVYYCATRYYRGYVRGTHHVGGYYYRGQGTQVTVSS | low polyreactivity |
| QVQLVESGGGLVQAGGSLRLSCAASGFIFGYYAMGWYRQAPGKERELVAAISKSGTDTYYADSVKGRFTISRDNAKNTVYLQMNSLKPEDTAVYYCNALLRGYSYGYDYWGQGTQVTVSS | high polyreactivity |
| QVQLEESGGGLVQAGGSLRLSCAASGSTFSGYAMGWYRQATGKDRELVAAITSSGGRTYYADSVKGRFTISRDKAKNTVYLQMNSLKPEDTAVYYCAALYYHEYDYWGQGTQVTVSS | low polyreactivity |
| QVKLQESGDGLVQAGGSLRLSSAASGTIFSDYGMGGYRQAPGKERELLAGISDGCNTNYTDSVKGRFTISRDNAHRVSADEQPETGGYRGVLLRGSERWLLFFVYWGQGTQVTVSS | high polyreactivity |
| QVQLVESGGGLVQAGGSLRLSSDASGSIFTAYSIGWYRQAPGKERELVADITQSAGSTYADSVKGRFTISRDNAKNTVYLQMNSLKPADTAVYYCAARYRYPYYARYGYWGQGTQVTVSS | high polyreactivity |
| QVQLVESGGGLVQAGGSLRLSCPASGRTYASYAMGWYRQAPGKDRELVAAITSSGGSTYYADSVKGRFTISRDNAKNTVYLQMNSLKPEYTAVYYCAARSRYRGDSWGQGTQVTVSS | high polyreactivity |
| QVQLVESGGGLVQAGGSLRLSCAASGFTFGYYAMGWYRQAPGKERELVAAISSRGSGTYYADSVKGRFTMSRDNAKNTVYLQLNSLKPEDTAVYYCARPSALLGYWGQGTQVTVSS | low polyreactivity |
| QVQLVESGGGLVQAGGSLRLSCAASGRIFWVYTMGWYRQAPGKERELVAAITSADSTNYADSVKGRFTISRDNAKNTVYLQMNSLKAEDTAVYYCAARLARDQVREWDERYYYWGQGTQVTVSS | low polyreactivity |
| QVQLVESGGGLVQAGGSLRLSCAASGLIFRYNAMGWYRQAPGKEMELVASITSDGSTNYADSVKGRFTISRDNAKNTVYLQMNSLKPEDTAVYYCAADGYTYWYYQLIPDYDYWGQGTQVTVSS | low polyreactivity |
| QVQHVESGGGLVQAGGSLRLSSAASGSIFTFYAMGWSRQAPGKEMELVADITGRGSRTYYADSVTGRFTISRDNAKNTVYLKMNSLKPEDTAVYYCAAGHDRYYQSEYGYWGQGTQVTVSS | high polyreactivity |
| QVQLVESGGGLVQAGGSLRLSCAASGYIFYWYDMGWYRQAPGKEREMVAVIPTSGGSTYYADSVKGRFTISRDNAKNTVYLQMNSLKPEDTAVEYCNADSLFEYWDYDYWGQGTQVTVSS | low polyreactivity |
| QVQLVESGGGLVQAGGSLRLSCAASGSTFTAYAMGWYRQAPGKERELVAAINWSGGTTYYADSVKGRFTISRDNAKNTVYLQMNSLKPEDTAVYSCAVDGNFFGEVRPYDYWGQGTQVTVSS | low polyreactivity |
| QVQLVESGGGLVQAGGSLRLSCAASGGIFYHNAMGWYRQAPGKERELVAAISGRGGRTYYADSVKGRFTISRDNAKNTVYLPMNSLKPEDTAVYYCNAVVYSPYRYEYWGQGTQVTVSS | low polyreactivity |
| QVQLVESGGGLVQAGGSLRLSCAASGRIFAQYAMGWYRQAPGKERELVAAISSGGNTYYADSVKGRFTISRDNAKNTVYLQMNSLKPEDTAVYYCAASSRRYLWGFDYWGQGTQVTVSS | low polyreactivity |
| QVQLVESGGGLVQAGGSLRLSCAASGITFYTYAMGWYRQAPGKERELVAAITGTGTSTYYADSVKGRFTISRDNAKNTVYLQMNSLKPEDTAVYYCAAYKRGLPVKRDSWGQGTQVTVSS | high polyreactivity |
| QVQLVDSGGGLVQAGGSLSLSCAASGRTFYPYAMGWYRQAPGKERELVARISRGGRTNYADSVKGRFTISRDNAKNTVYLQMNSLKPEDTAVYYCAAVYYGSYFITEDYWGQGTQVTVSS | low polyreactivity |
| QVQLVESGGGLVQAGGSLRLSCAASGFTFWRNAMGLYRQAPGKERELDAAISWRGGSTYYADCVKGRFTISRDNAKNTVYFQMNSLKPEDTAVYYCNVVYFRYYSGEFDYWGQGTQVTVSS | high polyreactivity |
| QVQLVESGGGLVQAGGSLRLSCAASGFTFDPYAMGWYRQAPGKERELVAAISISGGRTYYADSVKGRFTISRDNAKNTVYLQMNSLKPEDTAVYYCAVAQSHYFGGYGYWGQGTQVTVSS | low polyreactivity |
| QVQLVESGGGLVQAGGSLRVSCAASGFTFSHYAMGWYRQAPGKERELVAAISWGGGSTYYADSVKGRFTISRDNAQNTVYLQMNSLKPEDTAVYYCAARYVLFSNRFDYWGQGTQVTVSS | high polyreactivity |
| QDQLVESGGGLVQAGGSLRLSGAASGRTFRRYAKGWDRQAPGKEREWVATISSGGSTYYADSVKGRFTISRDNAKNTVYLQMNSLKPEDTALYYCAVRYWRAYYRYDYWGQGTQVTVSS | high polyreactivity |
| QVQLVESAGYLVQAAASLRLSCAASGLIFVYYALGWYRQAPGKERELVAFITSVGSTYYGDSVKGRFTISRDNAKYTVYLQMNSVNPEDTAVYYCAAEWEFYGFDYWGQGTQVTVSA | low polyreactivity |
| QVQLVESGGGLVQAGGSLRLSCAASGSTFYVNDMGWYRQAPGKERELVATISSGSSTYYADSVKGRFTISRDNAKNTVYFQMNSLKPEDTAVYYCAADGVAEEGFDAPYDYWGQGTQVTVSS | low polyreactivity |
| QVQLVESGGGLVQAGGSLRLSCAASGFTFPNNAMGWYRQAPGKERELVAAITWSGGSTYADSVKGRFTISRDNAKNTVYLQMNSLKPEDTAVYYCNTRGTYLSKTLPSAYDYWGQGTQVTVSS | low polyreactivity |
| QVQLVESGGGLVQAGGSLRLSCAASGSIFSRYTMGWYRQAPGKERELVARINSSGTSTYYADSVQGRFTIARDNAKNTVYLQMNSLKPEDTAVYYCAAQVDTQYWDFDYWGQGTQVTVSS | low polyreactivity |
| QVQLQESGGGLVQAGGSLRPSCEASGNISLNVYMCWYRQAPGKEREFVAGTADGATTNYADSVKGRFTISRDNAKNTVFLQMNSLKPEDTAVYDCIKDYGYVQLRFYGPGYYWGQGTQVTVSS | low polyreactivity |
